Results from publication PMC3543869.

Target: T1, recombinant rat apolipoprotein E (rat), P02650
T1 chain: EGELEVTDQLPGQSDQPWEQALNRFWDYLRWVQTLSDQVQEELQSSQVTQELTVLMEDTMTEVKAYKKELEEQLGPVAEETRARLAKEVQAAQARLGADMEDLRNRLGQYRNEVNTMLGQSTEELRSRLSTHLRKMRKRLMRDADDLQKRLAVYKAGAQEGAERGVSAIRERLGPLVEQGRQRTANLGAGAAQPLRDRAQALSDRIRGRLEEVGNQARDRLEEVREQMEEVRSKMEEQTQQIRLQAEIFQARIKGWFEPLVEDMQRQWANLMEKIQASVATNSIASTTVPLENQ
Test: SEC
Conditions: remark: other sources report otherwise

B1: recombinant rat apolipoprotein E, P02650 19-312 (natural protein)
chain: EGELEVTDQLPGQSDQPWEQALNRFWDYLRWVQTLSDQVQEELQSSQVTQELTVLMEDTMTEVKAYKKELEEQLGPVAEETRARLAKEVQAAQARLGADMEDLRNRLGQYRNEVNTMLGQSTEELRSRLSTHLRKMRKRLMRDADDLQKRLAVYKAGAQEGAERGVSAIRERLGPLVEQGRQRTANLGAGAAQPLRDRAQALSDRIRGRLEEVGNQARDRLEEVREQMEEVRSKMEEQTQQIRLQAEIFQARIKGWFEPLVEDMQRQWANLMEKIQASVATNSIASTTVPLENQ
With B1 the stoichiometry N was 4.
